Experimental findings from article doi:10.1101/751404, “HOPS recognizes each SNARE, assembling ternary trans-complexes for sudden fusion upon engagement with the 4th SNARE” (bioRxiv, 2019) are described below.

For the assay, the target named is T1, Qa-SNARE Vam3, full-length, wild-type (S. cerevisiae, UniProt Q12241 1-283).
T1 construct: Vam3, vacuolar Qa-SNARE, S. cerevisiae, full-length wild type with its transmembrane domain (residues 265-283); also called GST-Qa; source: isolated as described (Mima et al., 2008; Schwartz and Merz, 2009; Zucchi and Zick, 2011), reconstituted into proteoliposomes
T1 sequence (looked up): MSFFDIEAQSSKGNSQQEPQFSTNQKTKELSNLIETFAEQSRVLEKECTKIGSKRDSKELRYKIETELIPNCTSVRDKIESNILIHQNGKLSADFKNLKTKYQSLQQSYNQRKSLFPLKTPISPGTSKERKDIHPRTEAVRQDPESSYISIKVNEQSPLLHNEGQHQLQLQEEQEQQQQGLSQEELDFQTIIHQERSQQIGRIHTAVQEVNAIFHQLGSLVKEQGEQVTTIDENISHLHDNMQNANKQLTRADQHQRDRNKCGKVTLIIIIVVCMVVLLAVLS
The assay can be described thus: co-IP; proteoliposomes with Ypt7 and R mixed with proteoliposomes with Ypt7, Qa and Qb, with or without 50 nM HOPS and 4 μM Qc, 33 min; solubilised in modified RIPA buffer with 5 μM GST-R; anti-Qa antibody and protein A magnetic beads, 4°C, 2 h; immunoblot with antibodies to R, Qa and Vps33. The note with it: both partners purified. (In western blotting, separated proteins are transferred to a membrane and probed.)

B1: R-SNARE (Nyv1), full-length, wild-type (natural protein, S. cerevisiae, UniProt Q12255 1-253, looked up)
chain: MKRFNVSYVEVIKNGETISSCFQPFQKNENYGTITSANEQITPVIFHNLIMDMVLPKVVPIKGNKVTKMSMNLIDGFDCFYSTDDHDPKTVYVCFTLVDMPKILPIRILSGLQEYESNATNELLSSHVGQILDSFHEELVEYRNQTLNSSGNGQSSNGNGQNTISDIGDATEDQIKDVIQIMNDNIDKFLERQERVSLLVDKTSQLNSSSNKFRRKAVNIKEIMWWQKVKNITLLTFTIILFVSAAFMFFYLW
notes: Nyv1, vacuolar R-SNARE, S. cerevisiae, full-length wild type with its membrane anchor; source: isolated as described (Mima et al., 2008; Schwartz and Merz, 2009; Zucchi and Zick, 2011), buffer exchanged into β-octylglucoside, reconstituted into proteoliposomes
With B1, the binding result is reported as “binds”.
